# Experimental data: the supplement of paper PMC5998384
# How the values were obtained:
# HeLa Kyoto [1] = experiment: solubility in G1/S (NP-40 vs SDS abundance) (log2 ratio); higher = more soluble; conditions: cell cycle stage: G1/S
# HeLa Kyoto [2] = experiment: solubility change mitosis vs G1/S (difference of NP-40 vs SDS log2 ratios) (log2 ratio difference); higher = more soluble in mitosis
# 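For solubility change mitosis vs G1/S (difference of NP-40 vs SDS log2 ratios) in this document: synchronized HeLa Kyoto cells (double thymidine block for G1/S, nocodazole release for mitosis), protein amounts in NP-40 versus SDS lysates quantified by mass spectrometry, three biological replicates.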
# 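For solubility in G1/S (NP-40 vs SDS abundance) in this document: HeLa Kyoto cells arrested at G1/S by double thymidine block, proteins quantified by TMT10plex mass spectrometry in mild NP-40 versus SDS extracts, three biological replicates.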
Sequence,solubility in G1/S (log2) (HeLa Kyoto [1]),solubility change mitosis (log2) (HeLa Kyoto [2])
MAAEALAAEAVASRLERQEEDIRWLWSEVERLRDEQLNAPYSCQAEGPCLTREVAQLRAENCDLRHRLCSLRLCLAEERSRQATLESAELEAAQEAGAQPPPSQSQDKDMKKKKMKESEADSEVKHQPIFIKERLKLFEILKKDHQLLLAIYGKKGDTSNIITVRVADGQTVQGEVWKTTPYQVAAEISQELAESTVIAKVNGELWDLDRPLEGDSSLELLTFDNEEAQAVYWHSSAHILGEAMELYYGGHLCYGPPIENGFYYDMFIEDRAVSSTELSALENICKAIIKEKQPFERLEVSKEILLEMFKYNKFKCRILNEKVNTATTTVYRCGPLIDLCKGPHVRHTGKIKTIKIFKNSSTYWEGNPEMETLQRIYGISFPDNKMMRDWEKFQEEAKNRDHRKIGKEQELFFFHDLSPGSCFFLPRGAFIYNTLTDFIREEYHKRDFTEVLSPNMYNSKLWEASGHWQHYSENMFTFEIEKDTFALKPMNCPGHCLMFAHRPRSWREMPIRFADFGVLHRNELSGTLSGLTRVRRFQQDDAHIFCTVEQIEEEIKGCLQFLQSVYSTFGFSFQLNLSTRPENFLGEIEMWNEAEKQLQNSLMDFGEPWKMNPGDGAFYGPKIDIKIKDAIGRYHQCATIQLDFQLPIRFNLTYVSKDGDDKKRPVIIHRAILGSVERMIAILSENYGGKWPFWLSPRQVMVIPVGPTCEKYALQVSSEFFEEGFMADVDLDHSCTLNKKIRNAQLAQYNFILVVGEKEKIDNAVNVRTRDNKIHGEILVTSAIDKLKNLRKTRTLNAEEAF [TARSL2],-0.498,0.191
MAAELRMILYEDDSVQVQYVDGSTLQLSPCGSEFLFEKSPPVSAHPLEQPERIRQRTHFVISTYREQLQRALDFRNSSATCPFLSETIIPSERKKHIFIDITEVRWPSLDTDGTMIYMESGIVKITSLDGHAYLCLPRSQHEFTVHFLCKVSQKSDSSAVLSETNNKAPKDKLVEKTGKICIRGNLPGQRLKNKENEFHCQIMKSKETLKKMSCVNGTEGREELPSPGTKHTCVYTWVKQCWSVAACPEEWKYPLSLALHFHNKISNMSKIDAHITQSRFLTSDISEERGKVVSVLPRALSLSCPVPHLHRWNFCDSLLQRQSDEYSYPELVKMVWYKGVTYRLTHQNMNSIEIYSGDGSVFKSEGAYFGNYFTYYSIQEGSGKREEKTYSVNNLPPDRPGSPFTVGSLIKQATRILQHCVKMRLSLSHNYRICCWKMVPGINDSNILPLVLKESLIPSVGRFLAYSDDKVHAIFLDGITLTLNWNFSSPIEKRQVNQGLNLGWCKLTFPDGQEQLIQIEHPEPYERYVTTVTSWCRRLTQTSPREMPTHSSSSVLQENWSVASELEKIQKFNLLLENSGILNQISNKKNEQQSFDHYKPGSSETLLGEVNENRVSIALKKTSEILHDIDCLLSNSKK [C5ORF34],-0.136,-0.0287
MAAGAGAGSAPRWLRALSEPLSAAQLRRLEEHRYSAAGVSLLEPPLQLYWTWLLQWIPLWMAPNSITLLGLAVNVVTTLVLISYCPTATEEAPYWTYLLCALGLFIYQSLDAIDGKQARRTNSCSPLGELFDHGCDSLSTVFMAVGASIAARLGTYPDWFFFCSFIGMFVFYCAHWQTYVSGMLRFGKVDVTEIQIALVIVFVLSAFGGATMWDYTIPILEIKLKILPVLGFLGGVIFSCSNYFHVILHGGVGKNGSTIAGTSVLSPGLHIGLIIILAIMIYKKSATDVFEKHPCLYILMFGCVFAKVSQKLVVAHMTKSELYLQDTVFLGPGLLFLDQYFNNFIDEYVVLWMAMVISSFDMVIYFSALCLQISRHLHLNIFKTACHQAPEQVQVLSSKSHQNNMD [CHPT1],-0.277,-0.173
MAAGGSGGRASCPPGVGVGPGTGGSPGPSANAAATPAPGNAAAAAAAAAAAAAAPGPTPPAPPGPGTDAQAAGAERAEEAAGPGAAALQREAAYNWQASKPTVQERFAFLFNNEVLCDVHFLVGKGLSSQRIPAHRFVLAVGSAVFDAMFNGGMATTSTEIELPDVEPAAFLALLKFLYSDEVQIGPETVMTTLYTAKKYAVPALEAHCVEFLKKNLRADNAFMLLTQARLFDEPQLASLCLENIDKNTADAITAEGFTDIDLDTLVAVLERDTLGIREVRLFNAVVRWSEAECQRQQLQVTPENRRKVLGKALGLIRFPLMTIEEFAAGPAQSGILVDREVVSLFLHFTVNPKPRVEFIDRPRCCLRGKECSINRFQQVESRWGYSGTSDRIRFSVNKRIFVVGFGLYGSIHGPTDYQVNIQIIHTDSNTVLGQNDTGFSCDGSASTFRVMFKEPVEVLPNVNYTACATLKGPDSHYGTKGLRKVTHESPTTGAKTCFTFCYAAGNNNGTSVEDGQIPEVIFYT [BTBD2],-0.317,0.0341
MAALGVLESDLPSAVTLLKNLQEQVMAVTAQVKSLTQKVQAGAYPTEKGLSFLEVKDQLLLMYLMDLTHLILDKASGGSLQGHDAVLRLVEIRTVLEKLRPLDQKLKYQIDKLIKTAVTGSLSENDPLRFKPHPSNMMSKLSSEDEEEDEAEDDQSEASGKKSVKGVSKKYVPPRLVPVHYDETEAEREKKRLERAKRRALSSSVIRELKEQYSDAPEEIRDARHPHVTRQSQEDQHRINYEESMMVRLSVSKREKGRRKRANVMSSQLHSLTHFSDISALTGGTVHLDEDQNPIKKRKKIPQKGRKKKGFRRRR [NGDN],-1.83,0.93
MAAPVRLGRKRPLPACPNPLFVRWLTEWRDEATRSRRRTRFVFQKALRSLRRYPLPLRSGKEAKILQHFGDGLCRMLDERLQRHRTSGGDHAPDSPSGENSPAPQGRLAEVQDSSMPVPAQPKAGGSGSYWPARHSGARVILLVLYREHLNPNGHHFLTKEELLQRCAQKSPRVAPGSARPWPALRSLLHRNLVLRTHQPARYSLTPEGLELAQKLAESEGLSLLNVGIGPKEPPGEETAVPGAASAELASEAGVQQQPLELRPGEYRVLLCVDIGETRGGGHRPELLRELQRLHVTHTVRKLHVGDFVWVAQETNPRDPANPGELVLDHIVERKRLDDLCSSIIDGRFREQKFRLKRCGLERRVYLVEEHGSVHNLSLPESTLLQAVTNTQVIDGFFVKRTADIKESAAYLALLTRGLQRLYQGHTLRSRPWGTPGNPESGAMTSPNPLCSLLTFSDFNAGAIKNKAQSVREVFARQLMQVRGVSGEKAAALVDRYSTPASLLAAYDACATPKEQETLLSTIKCGRLQRNLGPALSRTLSQLYCSYGPLT [MUS81],-0.347,0.243
MAAQIPESDQIKQFKEFLGTYNKLTETCFLDCVKDFTTREVKPEETTCSEHCLQKYLKMTQRISMRFQEYHIQQNEALAAKAGLLGQPR [TIMM9],-0.307,0.239
MAAVKASTSKATRPWYSHPVYARYWQHYHQAMAWMQSHHNAYRKAVESCFNLPWYLPSALLPQSSYDNEAAYPQSFYDHHVAWQDYPCSSSHFRRSGQHPRYSSRIQASTKEDQALSKEEEMETESDAEVECDLSNMEITEELRQYFAETERHREERRRQQQLDAERLDSYVNADHDLYCNTRRSVEAPTERPGERRQAEMKRLYGDSAAKIQAMEAAVQLSFDKHCDRKQPKYWPVIPLKF [GEMIN8],0.511,0.219
MADFEELRNMVSSFRVSELQVLLGFAGRNKSGRKHDLLMRALHLLKSGCSPAVQIKIRELYRRRYPRTLEGLSDLSTIKSSVFSLDGGSSPVEPDLAVAGIHSLPSTSVTPHSPSSPVGSVLLQDTKPTFEMQQPSPPIPPVHPDVQLKNLPFYDVLDVLIKPTSLVQSSIQRFQEKFFIFALTPQQVREICISRDFLPGGRRDYTVQVQLRLCLAETSCPQEDNYPNSLCIKVNGKLFPLPGYAPPPKNGIEQKRPGRPLNITSLVRLSSAVPNQISISWASEIGKNYSMSVYLVRQLTSAMLLQRLKMKGIRNPDHSRALIKEKLTADPDSEIATTSLRVSLMCPLGKMRLTIPCRAVTCTHLQCFDAALYLQMNEKKPTWICPVCDKKAAYESLILDGLFMEILNDCSDVDEIKFQEDGSWCPMRPKKEAMKVSSQPCTKIESSSVLSKPCSVTVASEASKKKVDVIDLTIESSSDEEEDPPAKRKCIFMSETQSSPTKGVLMYQPSSVRVPSVTSVDPAAIPPSLTDYSVPFHHTPISSMSSDLPGLDFLSLIPVDPQYCPPMFLDSLTSPLTASSTSVTTTSSHESSTHVSSSSSRSETGVITSSGSNIPDIISLD [PIAS2],0.155,-0.0526
MADPVAGIAGSAAKSVRPFRSSEAYVEAMKEDLAEWLNALYGLGLPGGGDGFLTGLATGTTLCQHANAVTEAARALAAARPARGVAFQAHSVVPGSFMARDNVATFIGWCRVELGVPEVLMFETEDLVLRKNEKSVVLCLLEVARRGARLGLLAPRLVQFEQEIERELRAAPPAPNAPAAGEDTTETAPAPGTPARGPRMTPSDLRNLDELVREILGRCTCPDQFPMIKVSEGKYRVGDSSLLIFVRVLRSHVMVRVGGGWDTLEHYLDKHDPCRCSSTAHRPPQPRVCTFSPQRVSPTTSPRPASPVPGSERRGSRPEMTPVSLRSTKEGPETPPRPRDQLPPHPRSRRYSGDSDSSASSAQSGPLGTRSDDTGTGPRRERPSRRLTTGTPASPRRPPALRSQSRDRLDRGRPRGAPGGRGAQLSVPSPARRARSQSREEQAVLLVRRDRDGQHSWVPRGRGSGGSGRSTPQTPRARSPAAPRLSRVSSPSPELGTTPASIFRTPLQLDPQQEQQLFRRLEEEFLANARALEAVASVTPTGPVPDPARAPDPPAPDSAYCSSSSSSSSLSVLGGKCGQPGDSGRTANGLPGPRSQALSSSSDEGSPCPGMGGPLDAPGSPLACTEPSRTWARGRMDTQPDRKPSRIPTPRGPRRPSGPAELGTWHALHSVTPRAEPDSWM [GAS2L1],0.282,0.169
MAEASSANLGSGCEEKRHEGSSSESVPPGTTISRVKLLDTMVDTFLQKLVAAGSYQRFTDCYKCFYQLQPAMTQQIYDKFIAQLQTSIREEISDIKEEGNLEAVLNALDKIVEEGKVRKEPAWRPSGIPEKDLHSVMAPYFLQQRDTLRRHVQKQEAENQQLADAVLAGRRQVEELQLQVQAQQQAWQALHREQRELVAVLREPE [PMF1],0.135,0.643
MAEDEPDAKSPKTGGRAPPGGAEAGEPTTLLQRLRGTISKAVQNKVEGILQDVQKFSDNDKLYLYLQLPSGPTTGDKSSEPSTLSNEEYMYAYRWIRNHLEEHTDTCLPKQSVYDAYRKYCESLACCRPLSTANFGKIIREIFPDIKARRLGGRGQSKYCYSGIRRKTLVSMPPLPGLDLKGSESPEMGPEVTPAPRDELVEAACALTCDWAERILKRSFSSIVEVARFLLQQHLISARSAHAHVLKAMGLAEEDEHAPRERSSKPKNGLENPEGGAHKKPERLAQPPKDLEARTGAGPLARGERKKSVVESSAPGANNLQVNALVARLPLLLPRAPRSLIPPIPVSPPILAPRLSSGALKVATLPLSSRAGAPPAAVPIINMILPTVPALPGPGPGPGRAPPGGLTQPRGTENREVGIGGDQGPHDKGVKRTAEVPVSEASGQAPPAKAAKQDIEDTASDAKRKRGRPRKKSGGSGERNSTPLKSAAAMESAQSSRLPWETWGSGGEGNSAGGAERPGPMGEAEKGAVLAQGQGDGTVSKGGRGPGSQHTKEAEDKIPLVPSKVSVIKGSRSQKEAFPLAKGEVDTAPQGNKDLKEHVLQSSLSQEHKDPKATPP [RFX5],0.487,-0.117
MAEGGGPEPGEQERRSSGPRPPSARDLQLALAELYEDEVKCKSSKSNRPKATVFKSPRTPPQRFYSSEHEYSGLNIVRPSTGKIVNELFKEAREHGAVPLNEATRASGDDKSKSFTGGGYRLGSSFCKRSEYIYGENQLQDVQILLKLWSNGFSLDDGELRPYNEPTNAQFLESVKRGEIPLELQRLVHGGQVNLDMEDHQDQEYIKPRLRFKAFSGEGQKLGSLTPEIVSTPSSPEEEDKSILNAVVLIDDSVPTTKIQIRLADGSRLIQRFNSTHRILDVRNFIVQSRPEFAALDFILVTSFPNKELTDESLTLLEADILNTVLLQQLK [UBXN2B],0.562,0.053
